Columns and labels:
RAD51 [1] = biological target: RAD51 (UniProt Q08297); assay: co-IP of RAD51AP1-mCherry, RAD51-GFP blotted; settings: reference: wild type, asynchronous cells; sites T305
RAD51 [2] = biological target: RAD51 (UniProt Q08297); assay: co-IP of RAD51-GFP, RAD51AP1-mCherry blotted; settings: reference: wild type, asynchronous cells; sites T305

other: percent reduction vs wild type (RAD51 [1]): 90% | other: percent reduction vs wild type (RAD51 [2]): 62%
Substance: RAD51AP1 (from UniProt Q8C551) T305A
